One test has as its target T1, collagen type I (UniProt P02454 152-1207; P02466 86-1125).
T1 construct: collagen type I, alpha 1 chain; collagen type I, alpha 2 chain; also called collagen I; source: bought: Corning
As to the kind of experiment: ELISA; 96-well plate coated with 100 μg/ml collagen type I or 2% BSA at 4°C overnight, blocked with 2% BSA in PBS-T; SIRPαFc or CBD–SIRPαFc in five concentrations, 37°C, 2 h; detected with HRP anti-human IgG1 Fc antibody; KD by non-linear regression (one-site specific binding). Conditions: both partners purified. Background: In an ELISA, binding on a coated surface is turned into a signal by an enzyme label.

In the next test the target is T2, human CD47 (human, UniProt Q08722 19-323).
T2 construct: CD47, human, in solution as the analyte of Biacore
As to the kind of experiment: SPR; Biacore T200; SIRPαFc or CBD–SIRPαFc caught on a CM5 chip activated by EDC-NHS; human CD47 in six concentrations flowed over. Conditions: both partners purified. (In general: SPR reads the build-up and loss of mass on a sensor chip optically.)

Drawing on paper PMC9002095, “A SIRPαFc Fusion Protein Conjugated With the Collagen-Binding Domain for Targeted Immunotherapy of Non-Small Cell Lung Cancer” (Frontiers in Immunology, 2022), this text covers Kd for two molecules.

T2 sequence (Q08722 19-323): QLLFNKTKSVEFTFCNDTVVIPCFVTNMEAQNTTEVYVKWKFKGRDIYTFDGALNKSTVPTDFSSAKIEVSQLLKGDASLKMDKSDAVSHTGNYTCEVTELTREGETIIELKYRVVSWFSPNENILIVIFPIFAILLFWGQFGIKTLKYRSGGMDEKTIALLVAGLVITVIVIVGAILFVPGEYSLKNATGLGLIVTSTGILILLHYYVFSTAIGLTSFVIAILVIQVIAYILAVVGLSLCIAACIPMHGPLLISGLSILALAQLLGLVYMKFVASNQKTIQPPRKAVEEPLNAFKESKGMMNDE
T1 sequence (P02454 152-1207, chain 1 of 2): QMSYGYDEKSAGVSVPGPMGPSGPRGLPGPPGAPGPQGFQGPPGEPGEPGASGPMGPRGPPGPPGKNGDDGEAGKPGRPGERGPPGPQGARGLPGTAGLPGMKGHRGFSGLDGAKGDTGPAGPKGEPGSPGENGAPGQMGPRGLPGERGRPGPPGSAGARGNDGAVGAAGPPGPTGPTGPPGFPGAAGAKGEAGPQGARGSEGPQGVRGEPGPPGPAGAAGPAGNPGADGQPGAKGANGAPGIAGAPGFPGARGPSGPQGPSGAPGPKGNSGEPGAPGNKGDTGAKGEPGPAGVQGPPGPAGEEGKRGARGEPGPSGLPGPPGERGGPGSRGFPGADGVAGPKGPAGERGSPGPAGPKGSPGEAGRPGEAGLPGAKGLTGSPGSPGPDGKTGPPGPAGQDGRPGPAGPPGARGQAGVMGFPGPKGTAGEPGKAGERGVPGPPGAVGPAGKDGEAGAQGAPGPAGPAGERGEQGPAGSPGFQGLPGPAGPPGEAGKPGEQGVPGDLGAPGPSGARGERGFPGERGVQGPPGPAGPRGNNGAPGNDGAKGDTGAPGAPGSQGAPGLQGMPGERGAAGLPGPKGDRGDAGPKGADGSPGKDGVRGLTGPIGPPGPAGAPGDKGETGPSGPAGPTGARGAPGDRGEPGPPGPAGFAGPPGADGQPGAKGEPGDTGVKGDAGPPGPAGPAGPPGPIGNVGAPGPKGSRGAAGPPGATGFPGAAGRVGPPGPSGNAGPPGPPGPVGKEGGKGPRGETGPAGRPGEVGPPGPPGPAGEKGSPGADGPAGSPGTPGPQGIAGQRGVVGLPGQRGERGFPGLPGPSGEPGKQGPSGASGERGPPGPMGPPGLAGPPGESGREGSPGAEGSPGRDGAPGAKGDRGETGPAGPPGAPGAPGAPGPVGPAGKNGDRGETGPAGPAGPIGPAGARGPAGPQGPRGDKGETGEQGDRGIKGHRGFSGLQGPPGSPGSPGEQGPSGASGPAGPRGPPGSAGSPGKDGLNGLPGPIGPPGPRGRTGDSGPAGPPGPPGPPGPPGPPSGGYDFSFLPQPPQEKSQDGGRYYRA
T1 sequence (P02466 86-1125, chain 2 of 2): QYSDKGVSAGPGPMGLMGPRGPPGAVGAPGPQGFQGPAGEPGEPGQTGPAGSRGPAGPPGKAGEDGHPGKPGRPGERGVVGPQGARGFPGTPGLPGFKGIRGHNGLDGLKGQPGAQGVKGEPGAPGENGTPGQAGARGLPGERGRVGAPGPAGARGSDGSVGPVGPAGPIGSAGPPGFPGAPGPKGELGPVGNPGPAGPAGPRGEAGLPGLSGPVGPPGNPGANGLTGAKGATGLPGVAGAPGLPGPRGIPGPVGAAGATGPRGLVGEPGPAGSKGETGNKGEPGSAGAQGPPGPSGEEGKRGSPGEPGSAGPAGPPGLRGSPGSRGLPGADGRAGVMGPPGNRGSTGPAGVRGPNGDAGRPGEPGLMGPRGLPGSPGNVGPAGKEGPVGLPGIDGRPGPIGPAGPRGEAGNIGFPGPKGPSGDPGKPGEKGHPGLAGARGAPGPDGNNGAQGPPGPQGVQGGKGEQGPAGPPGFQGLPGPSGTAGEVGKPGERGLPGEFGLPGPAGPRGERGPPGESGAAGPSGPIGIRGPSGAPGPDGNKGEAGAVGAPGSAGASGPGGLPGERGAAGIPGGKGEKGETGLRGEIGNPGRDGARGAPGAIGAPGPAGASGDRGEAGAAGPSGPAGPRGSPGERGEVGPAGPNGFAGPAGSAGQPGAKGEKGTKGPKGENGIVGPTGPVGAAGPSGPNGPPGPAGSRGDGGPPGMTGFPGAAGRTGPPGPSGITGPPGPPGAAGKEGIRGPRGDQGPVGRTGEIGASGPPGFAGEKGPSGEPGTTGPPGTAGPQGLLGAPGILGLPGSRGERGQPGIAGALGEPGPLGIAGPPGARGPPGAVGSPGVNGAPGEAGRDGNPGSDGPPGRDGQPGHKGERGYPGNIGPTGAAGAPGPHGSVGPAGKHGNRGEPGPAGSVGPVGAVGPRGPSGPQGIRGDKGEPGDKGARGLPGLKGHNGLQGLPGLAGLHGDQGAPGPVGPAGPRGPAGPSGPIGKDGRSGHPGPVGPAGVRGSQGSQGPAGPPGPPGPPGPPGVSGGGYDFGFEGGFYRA

B1: TKKTLRT–SIRPαFc conjugate (Fc fusion)
chain 1: EEELQVIQPDKSVLVAAGETATLRCTATSLIPVGPIQWFRGAGPGRELIYNQKEGHFPRVTTVSDLTKRNNMDFSIRIGNITPADAGTYYCVKFRKGSPDDVEFKSG
chain 2: TKKTLRTC
modifications: free amino groups joined through Sulfo-SMCC to the cysteine of the peptide TKKTLRTC; one or two peptides on one SIRPαFc (MALDI-TOF-MS); sites not told | sulfhydryl of the C-terminal cysteine joined to the maleimide group of Sulfo-SMCC
What is called Kd is the constant that tells how readily two partners part at equilibrium. As for B1, the values for the Kd in the test with collagen type I and with human CD47 were 180 nM and 1.44 nM, respectively.

B2: human SIRPαFc fusion protein (Fc fusion)
chain: EEELQVIQPDKSVLVAAGETATLRCTATSLIPVGPIQWFRGAGPGRELIYNQKEGHFPRVTTVSDLTKRNNMDFSIRIGNITPADAGTYYCVKFRKGSPDDVEFKSG
In the test with human CD47, B2 came in with a Kd of 3.3 nM.
